How the values were obtained:
[1] = target: T1, HLA-A*02:01 with beta-2 microglobulin (human); assay: pHLA monomer refolding
T1 construct: also called HLA-A2

[2] = target: T2, HLA-A*03:01 with beta-2 microglobulin (human); assay: pHLA monomer refolding
T2 construct: also called HLA-A3

[3] = target: T3, HLA-B*07:02 with beta-2 microglobulin (human); assay: pHLA monomer refolding
T3 construct: also called HLA-B7

[4] = target: T4, HLA-A*01:01 with beta-2 microglobulin (human); assay: pHLA monomer refolding
T4 construct: also called HLA-A1

[5] = target: T5, HLA-C*07:02 with beta-2 microglobulin (human); assay: pHLA monomer refolding
T5 construct: also called HLA-C7; C702

[6] = target: T6, MAGE-A1 peptide on HLA-A*02:01 (human); assay: multimer staining
T6 peptide: KVLEYVIKV

[7] = target: T7, MAGE-A1 peptide on HLA-C*07:02 (human); assay: multimer staining
T7 peptide: VRFFFPSL

[8] = target: T8, MAGE-A9 peptide on HLA-A*01:01 (human); assay: multimer staining
T8 peptide: YVGKEHMFY

[9] = target: T9, MAGE-A1 peptide on HLA-A*03:01 (human); assay: multimer staining
T9 peptide: SLFRAVITK

[10] = target: T10, MAGE-A1 peptide on HLA-B*07:02 (human); assay: multimer staining
T10 peptide: RVRFFFPSL

[11] = target: T11, MAGE-A6 peptide on HLA-B*35:01 (human); assay: cytokine release
T11 peptide: EVDPIGHVY

[12] = target: T12, MAGE-A3 peptide on HLA-B*35:01 (human); assay: multimer staining
T12 peptide: EVDPIGHLY

ALIEVGPDHFC (synthetic peptide) [ALIEVGPDHFC (MAGE-C2 peptide)]
binding result [1]: binds

ALKDVEERV (synthetic peptide) [ALKDVEERV (MAGE-C2 peptide)]
binding result [1]: binds

ATLPPFMCNK (synthetic peptide) [ATLPPFMCNK (SSX2 peptide)]
binding result [2]: binds

ALREEEEGV (synthetic peptide) [ALREEEEGV (MAGE-A1 peptide)]
binding result [1]: binds

FPSLREAAL (synthetic peptide) [FPSLREAAL (MAGE-A1 peptide)]
binding result [3]: binds

YPSLREAAL (synthetic peptide) [YPSLREAAL (MAGE-A4 peptide)]
binding result [3]: binds

FVYGEPREL (synthetic peptide) [FVYGEPREL (MAGE-C2 peptide)]
binding result [1]: binds

GVYAGREHFV (synthetic peptide) [GVYAGREHFV (MAGE-C2 peptide)]
binding result [1]: binds

GVYDGREHTV (synthetic peptide) [GVYDGREHTV (MAGE-A4 peptide)]
binding result [1]: binds

IVLGVILTK (synthetic peptide) [IVLGVILTK (MAGE-A9 peptide)]
binding result [2]: binds

KASEKIFYV (synthetic peptide) [KASEKIFYV (SSX2 peptide)]
binding result [1]: binds

KIWEELSVLEV (synthetic peptide) [KIWEELSVLEV (MAGE-A3/A6 peptide)]
binding result [1]: binds

KVLEFLAKL (synthetic peptide) [KVLEFLAKL (MAGE-C2 peptide)]
binding result [1]: binds

KVLEYVIKV (synthetic peptide) [KVLEYVIKV (MAGE-A1 peptide)]
binding result [1]: binds

LTQDLVQEKYLEY (synthetic peptide) [LTQDLVQEKYLEY (MAGE-A1 peptide)]
binding result [4]: binds

RCFPVIFGK (synthetic peptide) [RCFPVIFGK (MAGE-A4 peptide)]
binding result [2]: binds

RIFPKIMPK (synthetic peptide) [RIFPKIMPK (SSX4 peptide)]
binding result [2]: binds

RPADLTRVIM (synthetic peptide) [RPADLTRVIM (MAGE-A11 peptide)]
binding result [3]: binds

RVRFFFPSL (synthetic peptide) [RVRFFFPSL (MAGE-A1 peptide)]
binding result [3]: binds

RVRFFFPSLR (synthetic peptide) [RVRFFFPSLR (MAGE-A1 peptide)]
binding result [2]: binds

RVRIAYPSL (synthetic peptide) [RVRIAYPSL (MAGE-A4 peptide)]
binding result [3]: binds

RVRIAYPSLR (synthetic peptide) [RVRIAYPSLR (MAGE-A4 peptide)]
binding result [2]: binds

SMLGDGHSMPK (synthetic peptide) [SMLGDGHSMPK (MAGE-A9 peptide)]
binding result [2]: binds

SVMGVYVGK (synthetic peptide) [SVMGVYVGK (MAGE-A9 peptide)]
binding result [2]: binds

TLDEKVAEL (synthetic peptide) [TLDEKVAEL (MAGE-C2 peptide)]
binding result [1]: binds

VIWEVLNAV (synthetic peptide) [VIWEVLNAV (MAGE-C2 peptide)]
binding result [1]: binds

VLGEEQEGV (synthetic peptide) [VLGEEQEGV (MAGE-A9 peptide)]
binding result [1]: binds

VRFFFPSL (synthetic peptide) [VRFFFPSL (MAGE-A1 peptide)]
binding result [5]: binds

YVGKEHMFY (synthetic peptide) [YVGKEHMFY (MAGE-A9 peptide)]
binding result [4]: binds

B1: TCR CT27.4F7 (TCR, V domains shown)
Valpha: GEDVEQSLFLSVREGDSSVINCTYTDSSSTYLYWYKQEPGAGLQLLTYIFSNMDMKQDQRLTVLLNKKDKHLSLRIADTQTGDSAIYFCAESIDARLMFGDGTQLVVKP
Vbeta: DSGVTQTPKHLITATGQRVTLRCSPRSGDLSVYWYQQSLDQGLQFLIQYYNGEERAKGNILERFSAQQFPDLHSELNLSSLELGDSALYFCASSPGGDTQYFGPGTRLTVL
binding result [6]: recognises

B2: TCR CT31.10C1 (TCR, V domains shown)
Valpha: DQQVKQNSPSLSVQEGRISILNCDYTNSMFDYFLWYKKYPAEGPTFLISISSIKDKNEDGRFTVFLNKSAKHLSLHIVPSQPGDSAVYFCAASAQNNDMRFGAGTRLTVKP
Vbeta: DAGVIQSPRHEVTEMGQEVTLRCKPISGHDYLFWYRQTMMRGLELLIYFNNNVPIDDSGMPEDRFSAKMPNASFSTLKIQPSEPRDSAVYFCASGTGWDTEAFFGQGTRLTVV
binding result [7]: recognises

B3: TCR CT43.2D8 (TCR, V domains shown)
Valpha: EDKVVQSPLSLVVHEGDTVTLNCSYEVTNFRSLLWYKQEKKAPTFLFMLTSSGIEKKSGRLSSILDKKELSSILNITATQTGDSAIYLCAVEGWDDKIIFGKGTRLHILP
Vbeta: DAGITQSPRHKVTETGTPVTLRCHQTENHRYMYWYRQDPGHGLRLIHYSYGVKDTDKGEVSDGYSVSRSKTEDFLLTLESATSSQTSVYFCAISEGRNEQYFGPGTRLTVT
binding result [8]: recognises

B4: TCR CT23.3H4 (TCR, V domains shown)
Valpha: RKEVEQDPGPFNVPEGATVAFNCTYSNSASQSFFWYRQDCRKEPKLLMSVYSSGNEDGRFTAQLNRASQYISLLIRDSKLSDSATYLCVVNFNYGQNFVFGPGTRLSVLP
Vbeta: DTGVSQDPRHKITKRGQNVTFRCDPISEHNRLYWYRQTLGQGPEFLTYFQNEAQLEKSRLLSDRFSAERPKGSFSTLEIQRTEQGDSAMYLCASSPLGVNTEAFFGQGTRLTVV
binding result [9]: recognises

B5: TCR CT12.3G2 (TCR, V domains shown)
Valpha: AQKVTQAQTEISVVEKEDVTLDCVYETRDTTYYLFWYKQPPSGELVFLIRRNSFDEQNEISGRYSWNFQKSTSSFNFTITASQVVDSAVYFCALSEAYSGAGSYQLTFGKGTKLSVIP
Vbeta: EPEVTQTPSHQVTQMGQEVILRCVPISNHLYFYWYRQILGQKVEFLVSFYNNEISEKSEIFDDQFSVERPDGSNFTLKIRSTKLEDSAMYFCASSEALQPQHFGDGTRLSIL
binding result [10]: recognises

B6: TCR CT23.2H9 (TCR, V domains shown)
Valpha: KDQVFQPSTVASSEGAVVEIFCNHSVSNAYNFFWYLHFPGCAPRLLVKGSKPSQQGRYNMTYERFSSSLLILQVREADAAVYYCAVPNNYGQNFVFGPGTRLSVLP
Vbeta: NAGVTQTPKFRILKIGQSMTLQCTQDMNHNYMYWYRQDPGMGLKLIYYSVGAGITDKGEVPNGYNVSRSTTEDFPLRLELAAPSQTSVYFCASSYSGQGLYEQYFGPGTRLTVT
binding result [11]: recognises | binding result [12]: recognises

Reference: patent US20260132183A1 (ACADEMISCH ZIEKENHUIS LEIDEN H O D N LUMC, published 2026)
